Measured values from patent USRE50282 (KAGOSHIMA UNIVERSITY, dated 2025).
Bridges are numbered along the chain shown (N, C = ends). Primed or numbered codes have the meaning given here. Where no end group is shown, it is not given here. The star is where a group is joined. DSS = disuccinimidyl suberate, reactive NHS group, O=C(CCCCCCC(=O)*)ON1C(=O)CCC1=O; DSG = disuccinimidyl glutarate, reactive NHS group, O=C(CCCC(=O)*)ON1C(=O)CCC1=O; Biotin = O=C1N[C@H]2[C@H](CS[C@H]2CCCCC(=O)*)N1; PEG4′ = not defined here

Assays:
human IgG Fc = target: T1, human IgG Fc (human, UniProt P01857-1 108-330 = IgG part); test: X-ray crystallography of the Fc/IgG-binding peptide conjugate
T1 construct: domain: Fc; also called human IgG1 Fc

human serum albumin = target: T2, human serum albumin (human, UniProt P02768 25-609); test: covalent labeling reaction, SDS-PAGE and Western blotting with SA-conjugated HRP
T2 construct: also called HSA; HAS

bovine serum albumin = target: T3, bovine serum albumin (bovine, UniProt P02769 25-607); test: ELISA, BSA used as blocking agent, biotinylated peptide detected with SA-HRP
T3 construct: also called BSA
T3 sequence (P02769 25-607 limits assumed): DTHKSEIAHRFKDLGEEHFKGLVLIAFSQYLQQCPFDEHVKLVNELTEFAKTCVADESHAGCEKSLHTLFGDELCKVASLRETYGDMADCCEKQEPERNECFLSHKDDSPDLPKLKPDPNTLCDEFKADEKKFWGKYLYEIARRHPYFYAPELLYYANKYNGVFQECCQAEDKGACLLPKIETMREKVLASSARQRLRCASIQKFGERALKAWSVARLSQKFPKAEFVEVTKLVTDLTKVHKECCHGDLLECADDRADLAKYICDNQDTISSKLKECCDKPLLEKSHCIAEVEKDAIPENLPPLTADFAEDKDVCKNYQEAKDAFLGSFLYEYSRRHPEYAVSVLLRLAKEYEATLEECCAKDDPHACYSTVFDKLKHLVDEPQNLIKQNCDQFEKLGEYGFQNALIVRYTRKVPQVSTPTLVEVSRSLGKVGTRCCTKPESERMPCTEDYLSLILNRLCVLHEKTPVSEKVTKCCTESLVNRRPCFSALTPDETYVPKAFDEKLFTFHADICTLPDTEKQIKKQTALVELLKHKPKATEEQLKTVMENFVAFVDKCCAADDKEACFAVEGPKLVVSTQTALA

B1: cyclic homocysteine peptide G(HC)DCAYHRGELVWCT(HC)H-NH2 (peptide)
peptide: GXDCAYHRGELVWCTXH-NH2
modifications: disulfide 4-14, 2-16; not fully specified (residues 2, 16); printed as G(HC)DCAYHRGELVWCT(HC)H-NH2
- binding result (human IgG Fc): binds

Binder: {Biotin-PEG4′}-GDDCAYHK(DSG)GELVWCTFH-NH2 (disulfide 4-14, also called labeled reagent peptide) [N-terminally biotin-PEG4-added IgG-binding peptide (Type I(R8K)) modified with DSG]
- binding result (human serum albumin): no binding

Binder: {Biotin-PEG4′}-GDDCAYHK(DSS)GELVWCTFH-NH2 (disulfide 4-14, also called DSS R8K) [N-terminally biotin-PEG4-added IgG-binding peptide (Type I(R8K)) modified with DSS]
- binding result (human serum albumin): no binding
- binding result (bovine serum albumin): no binding (tested: molar ratio up to 10)
